Values of other authors in publication PMC3585250.
pKd: −log10 of the molar value.

Molecular target: integrin αvβ3 (Homo sapiens) (UniProt P06756)
Sequence of UniProt P06756 (P06756 31-1048, chain 1 of 2): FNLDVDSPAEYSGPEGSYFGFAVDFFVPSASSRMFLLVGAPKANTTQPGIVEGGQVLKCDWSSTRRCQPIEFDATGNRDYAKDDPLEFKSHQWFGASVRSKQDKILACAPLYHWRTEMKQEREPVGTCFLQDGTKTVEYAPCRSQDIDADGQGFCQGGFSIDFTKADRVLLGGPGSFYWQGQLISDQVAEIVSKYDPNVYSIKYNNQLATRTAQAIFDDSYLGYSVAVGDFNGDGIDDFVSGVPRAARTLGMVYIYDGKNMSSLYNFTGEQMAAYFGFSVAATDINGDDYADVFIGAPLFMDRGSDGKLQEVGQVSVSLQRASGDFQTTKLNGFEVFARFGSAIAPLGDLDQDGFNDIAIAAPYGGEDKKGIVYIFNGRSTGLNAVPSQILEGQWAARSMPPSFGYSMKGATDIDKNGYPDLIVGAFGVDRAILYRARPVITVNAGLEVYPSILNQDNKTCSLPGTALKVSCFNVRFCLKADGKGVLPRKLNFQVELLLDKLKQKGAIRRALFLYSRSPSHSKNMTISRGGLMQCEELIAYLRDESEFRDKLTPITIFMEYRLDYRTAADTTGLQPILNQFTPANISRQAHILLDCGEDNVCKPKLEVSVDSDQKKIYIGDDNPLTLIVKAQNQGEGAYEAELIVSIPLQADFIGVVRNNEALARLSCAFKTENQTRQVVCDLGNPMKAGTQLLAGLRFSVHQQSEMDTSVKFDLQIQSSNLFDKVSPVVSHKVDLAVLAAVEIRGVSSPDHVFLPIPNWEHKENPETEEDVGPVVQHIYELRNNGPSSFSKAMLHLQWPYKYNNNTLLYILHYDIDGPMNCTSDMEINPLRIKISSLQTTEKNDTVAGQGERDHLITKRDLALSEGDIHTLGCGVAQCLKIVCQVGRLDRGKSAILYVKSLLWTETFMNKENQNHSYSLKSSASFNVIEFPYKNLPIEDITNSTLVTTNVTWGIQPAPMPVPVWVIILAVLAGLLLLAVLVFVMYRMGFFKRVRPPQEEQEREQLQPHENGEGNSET
Sequence of UniProt P06756 (P05106 27-788, chain 2 of 2, further chain): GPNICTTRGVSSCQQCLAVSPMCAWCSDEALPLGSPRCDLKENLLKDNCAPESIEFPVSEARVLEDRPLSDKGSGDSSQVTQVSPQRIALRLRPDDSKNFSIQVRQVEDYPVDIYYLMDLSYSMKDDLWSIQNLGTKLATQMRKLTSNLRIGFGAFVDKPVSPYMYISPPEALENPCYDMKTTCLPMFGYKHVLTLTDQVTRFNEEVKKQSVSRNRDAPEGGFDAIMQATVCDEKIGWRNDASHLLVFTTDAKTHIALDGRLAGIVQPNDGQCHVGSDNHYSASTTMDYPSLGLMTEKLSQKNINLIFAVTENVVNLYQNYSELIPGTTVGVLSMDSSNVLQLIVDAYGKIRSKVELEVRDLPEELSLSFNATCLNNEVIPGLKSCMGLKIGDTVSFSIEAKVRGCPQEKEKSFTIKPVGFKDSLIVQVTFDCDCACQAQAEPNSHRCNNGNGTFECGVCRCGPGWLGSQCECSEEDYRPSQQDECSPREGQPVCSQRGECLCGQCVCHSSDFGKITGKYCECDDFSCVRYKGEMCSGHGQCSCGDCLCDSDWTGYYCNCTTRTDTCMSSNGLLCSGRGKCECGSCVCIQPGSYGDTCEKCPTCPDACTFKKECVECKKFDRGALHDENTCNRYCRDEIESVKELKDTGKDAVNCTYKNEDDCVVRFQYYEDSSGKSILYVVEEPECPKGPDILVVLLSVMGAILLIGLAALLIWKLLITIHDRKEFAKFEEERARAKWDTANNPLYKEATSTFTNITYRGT

pKd: 6.00
Substance: FGF1 (from UniProt P05230)
